Test results from article PMC5078793, “ADAMTS-10 and -6 differentially regulate cell-cell junctions and focal adhesions” (Scientific Reports, 2016).
Values belong to the binder of their own block, whether it stands above or below them.

Experiments:
[1] = target: T1, ADAMTS6 C-terminal region (human, UniProt Q9UKP5-1 558-1117); experiment: SPR; Biacore; ADAMTS protein (full-length or C-terminal region) immobilised by amine coupling on CM5 (~3000 RU); analyte injected at 30 ul/min; 10 mM HEPES pH 7.4, 0.1 M NaCl, 0.5 mM CaCl2, 0.005% P20; 1:1 kinetics or equilibrium analysis; conditions: both partners purified
T1 construct: human ADAMTS6 variant 1, C-terminal region starting at the 1st TSR domain, residues 558-1117; The text calls it monomeric; also called C-terminal ADAMTS6; C-terminal fragment of ADAMTS6; source: 293-EBNA cells (pCEP-pu/AC7), purified (IMAC, 0.5 M NaCl)
T1 sequence (looked up): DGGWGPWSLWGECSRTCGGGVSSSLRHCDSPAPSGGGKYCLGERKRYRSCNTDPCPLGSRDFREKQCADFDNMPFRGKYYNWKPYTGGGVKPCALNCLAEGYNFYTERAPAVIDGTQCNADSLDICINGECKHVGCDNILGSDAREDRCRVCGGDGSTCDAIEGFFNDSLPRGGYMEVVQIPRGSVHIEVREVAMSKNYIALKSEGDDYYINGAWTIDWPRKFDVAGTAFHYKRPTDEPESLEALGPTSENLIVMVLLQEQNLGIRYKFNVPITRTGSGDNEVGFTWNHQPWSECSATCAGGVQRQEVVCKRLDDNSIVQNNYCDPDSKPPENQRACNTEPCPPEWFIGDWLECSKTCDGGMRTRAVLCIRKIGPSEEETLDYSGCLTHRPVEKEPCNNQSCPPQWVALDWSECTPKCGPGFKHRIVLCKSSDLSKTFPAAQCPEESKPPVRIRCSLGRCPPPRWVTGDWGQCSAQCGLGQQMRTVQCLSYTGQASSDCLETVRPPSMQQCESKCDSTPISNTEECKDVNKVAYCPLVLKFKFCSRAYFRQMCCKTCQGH

[2] = target: T1, ADAMTS6 C-terminal region; experiment: SPR; Biacore; syndecan-4 ectodomain immobilised, ADAMTS C-terminal regions injected; 10 mM HEPES pH 7.4, 0.1 M NaCl, 0.5 mM CaCl2, 0.005% P20; conditions: both partners purified
[3] = target: T2, ADAMTS10 C-terminal region (human, UniProt Q9H324 547-1103); experiment: as above; conditions: both partners purified
T2 construct: human ADAMTS10 variant 1, C-terminal region starting at the 1st TSR domain, residues 547-1103; also called C-terminal ADAMTS10; source: 293-EBNA cells (pCEP-pu/AC7), purified (IMAC, 0.5 M NaCl)
T2 sequence (looked up): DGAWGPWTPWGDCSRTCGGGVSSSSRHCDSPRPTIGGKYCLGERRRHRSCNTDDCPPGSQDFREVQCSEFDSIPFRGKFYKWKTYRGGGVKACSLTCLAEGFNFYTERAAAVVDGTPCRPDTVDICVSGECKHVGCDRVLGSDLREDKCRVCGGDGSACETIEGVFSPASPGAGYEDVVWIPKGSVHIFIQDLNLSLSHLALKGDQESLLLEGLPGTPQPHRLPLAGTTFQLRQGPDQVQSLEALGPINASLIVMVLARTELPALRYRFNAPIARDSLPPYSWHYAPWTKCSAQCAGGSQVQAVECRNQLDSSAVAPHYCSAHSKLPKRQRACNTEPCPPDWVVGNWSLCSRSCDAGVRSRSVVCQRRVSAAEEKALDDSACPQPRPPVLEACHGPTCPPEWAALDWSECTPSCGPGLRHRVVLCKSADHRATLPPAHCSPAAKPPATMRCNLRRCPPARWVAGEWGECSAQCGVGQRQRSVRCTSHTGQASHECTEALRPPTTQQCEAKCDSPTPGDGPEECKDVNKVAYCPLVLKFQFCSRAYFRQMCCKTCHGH

[4] = target: the molecule itself; experiment: SDS-PAGE and western blot (SDS-resistant dimer); purified syndecan-4 ectodomain treated with heparinases I, II, III; anti-syndecan-4 blot; with or without ADAMTS6 overnight at 37 °C

Kd [1]: 2.4 ± 1.2 nM
B1: fibrillin-1 Ex6–11 fragment (domain or fragment)
chain: not shown
notes: human fibrillin-1, domains encoded by exons 6-11; source: 293-EBNA cells (pCEP-pu/AC7), purified (IMAC, size-exclusion chromatography)

Kd [2]: 12.9 ± 4 nM
Kd [3]: 14 ± 1.1 nM
B2: syndecan-4 ectodomain (domain or fragment, human (cloned from ARPE-19A RNA), UniProt P31431 19-143, looked up)
chain: ESIRETEVIDPQDLLEGRYFSGALPDDEDVVGPGQESDDFELSGSGDLDDLEDSMIGPEVVHPLVPLDNHIPERAGSGSQVPTEPKKLEENEVIPKRISPVEESEDVSNKVSMSSTVQGSNIFER
modifications: the recombinant protein is modified with heparin chains
notes: syndecan-4 ectodomain cloned from RNA of ARPE-19A cells, residues 19-143 (ESI....IFE); Carries heparan sulphate chains in the SPR; also called Syn4 EC; syndecan-4 extracellular domain; source: 293-EBNA cells (pCEP-pu/AC7), purified (IMAC, size-exclusion chromatography)
binding result [4]: binds
